We go through 139 substances from the supplement of paper PMC12042874.

± gives the uncertainty stated by the source.

This data set can be described thus: amyloid nucleation score (Sup35N fusion, yeast selection) (log enrichment); library NNK2; higher = more nucleation; inactive = no reads after selection. The gist of the method: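 Sup35N fusions to peptides of 20 random codons were expressed in psi-negative yeast, induced 24 hours with 100 μM copper sulfate, and grown 7 days at 30°C on medium lacking adenine and uracil. Input and output plasmid inserts were sequenced by Illumina. The nucleation score is the DiMSum log enrichment of output over input reads, centred on the mode score of non-aggregating sequences. Sequences with under 100 input reads were excluded.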
HGDVIRCRTKIIIAVFGMFM came in with an amyloid nucleation score of 6.21 ± 0.076.
Turning to HGGFGYR, the amyloid nucleation score is -0.336 ± 0.49.
Turning to HGSQRFDFWGGYRYW, the amyloid nucleation score was 0.83 ± 0.13.
In turn, HHFNCCTGNFYIYKLDDSLI had an amyloid nucleation score of 5.485 ± 0.048.
On to HHIGGMIS, for which the amyloid nucleation score was -0.09 ± 0.3.
Take HHWRGALGFVCWGRFEERWV: the amyloid nucleation score was -0.567 ± 0.23.
HIAID gave an amyloid nucleation score of 0.401 ± 0.56.
Turning to HIFFTDKFGGYVFLYPDFVA, the amyloid nucleation score entry was “inactive”.
HIKDNQSSSV: the amyloid nucleation score was found to be 0.196 ± 0.44.
The substance HILICFWRVQVLKSACLYWT showed an amyloid nucleation score of 1.74 ± 0.11.
In the case of HILRRINIWGGFPCMRVSKN, the amyloid nucleation score was -0.755 ± 1.1.
Regarding HIMSIDVPSNLSLQFIMVGY, the amyloid nucleation score is 0.306 ± 0.64.
Consider HLCHLLRSEHCRNGGSEKSR, for which the amyloid nucleation score was 1.61 ± 0.29.
HLDYAGYIGDRSHTDFASGR registered an amyloid nucleation score of 0.519 ± 0.46.
Substance HLEMRPAMRIPLLRTDFWKV showed an amyloid nucleation score of 0.665 ± 0.19.
As for HLGHKKVRWDMSAELWQ, the figure is 2.75 ± 0.1.
For the substance HLGVGFLWSVRFIYMTFGFS, the amyloid nucleation score entry is “inactive”.
In turn, HLTVFVDLSVRLRQMYRRYS returned an amyloid nucleation score of 5.56 ± 0.069.
For HLWGTKFMAFVARFV, the amyloid nucleation score was -0.12 ± 0.79.
In turn, HLWVWFRYSSRSFSHMLGDC had an amyloid nucleation score of 2.92 ± 0.15.
For HLYLEYGNVTWGWVMVLIVG, the amyloid nucleation score result is “inactive”.
HLYMH had an amyloid nucleation score of 1.62 ± 0.18.
In turn, HMSCMSLSVIFDIILNLCSL yielded an amyloid nucleation score of 6.097 ± 0.06.
As to HMYVGHGLNVFAYISMLGVY, the amyloid nucleation score result was “inactive”.
As to HNGSNFGTWSQGSLRHVRAR, the amyloid nucleation score was -0.023 ± 0.31.
On to HNVGILWSSCCSRMYIAYAY, for which the amyloid nucleation score was -0.288 ± 1.
For HNVVRGFCLVFTIYHSGRTR, the amyloid nucleation score is 5.1 ± 0.082.
Substance HPDDTMKFSSRTHITTQTDR yielded an amyloid nucleation score of 0.908 ± 0.52.
As for HQVFPAKAGLPALVYLLGFY, the figure is 0.602 ± 0.81; as for HRAWSSVCSKYSSTGTRNLI, 2.99 ± 0.14.
With HRFSGVVIYNINRSSTIGN, the amyloid nucleation score is 7.328 ± 0.04.
As for HRFSLRNHCRSFSSGHLVHN, the amyloid nucleation score was -1.24 ± 0.75.
Regarding HRRVVAPNKCWMSLACFWDL, the amyloid nucleation score came out at 4.33 ± 0.053.
HSAMFLYTKHVSPPGSWRVL: the amyloid nucleation score was found to be 1.6 ± 0.13.
Regarding HSDMFRKIQVLILSVERQNE, the amyloid nucleation score result was “inactive”.
Substance HSFPRCNSVHWPDDIGGCDG came in with an amyloid nucleation score of 4.58 ± 0.047.
In turn, HSFTTMFWNSAMY had an amyloid nucleation score of 4.11 ± 0.062.
For HSLLGPGPVPSYPQFSSPGR, the amyloid nucleation score entry was “inactive”.
Regarding HSLSWKCV, the amyloid nucleation score is 0.346 ± 0.74.
For the substance HSLVS, the amyloid nucleation score is -0.266 ± 1.
Substance HSNPYRKLIQLTMTGITGTV yielded an amyloid nucleation score of 0.033 ± 0.48.
As for HTAMCAVSGFRNIWSKPVKF, the figure is -0.817 ± 1.1; as for HTITNTL, -0.06 ± 1.1.
In turn, HTQSLVRVCWIYIRLPRSTP registered an amyloid nucleation score of 0.393 ± 0.2.
As for HTSMWFL, the figure is -0.145 ± 1.1; as for HVLHCTYSQSSMEQLFCFNW, “inactive”; as for HVYFSCAYWQPVYMYCCGKQ, 7.771 ± 0.059.
Substance HWKAFYL displayed an amyloid nucleation score of 1.13 ± 0.59.
As for HWKVENRLNSMEWKSMGGQN, the figure is 3.97 ± 0.053; as for HWLTKISGTTPELYPRERVV, 0.071 ± 0.25.
With HWSLGSYFGYNFGR, the amyloid nucleation score stood at 5.67 ± 0.062.
As for HWYLRSV, the figure is 0.239 ± 0.43; as for HYCYRHIGRLQMWMKSGLHA, 1.04 ± 0.34; as for HYISRHQLWILFFVKCVNSR, 5.01 ± 0.1.
Regarding HYLNIRQDPY, the amyloid nucleation score came to 2.4 ± 0.21.
Consider HYQWQYACLWRCVTVRGSDQ, for which the amyloid nucleation score was determined as 0.949 ± 0.17.
As to HYSIIWTAS, the amyloid nucleation score was 0.233 ± 0.46.
The same measure for HYVYFGYECAFGGG: -0.365 ± 0.76; for HYWIVRLDAWVSQSVRWCNP: 10.95 ± 0.079; for IAAMTFFMMCLTYCVLWIAW: 1.71 ± 0.31.
Take IADIVQGSGVAT: the amyloid nucleation score was -0.178 ± 0.26.
Consider IARFSKKTSVSMGTRCAT, for which the amyloid nucleation score was determined as 0.122 ± 0.3.
With ICGCKRSTVLWVSCFGV, the amyloid nucleation score amounted to 3.18 ± 0.12.
As for ICIFHDWVIIICCSIRMRCL, the figure is -0.823 ± 0.63.
As for ICKFFSIGVH, the figure is 1.14 ± 0.68; as for ICMAGEVGKQRGYLDGGMP, 0.505 ± 0.54.
ICPPAWFKRVNDGGVYALNE came in with an amyloid nucleation score of 0.904 ± 0.48.
As for ICQCPVNTANTQLGVGTRLK, the amyloid nucleation score turned out to be 0.114 ± 0.5.
As for ICRNGLSL, the figure is 0.098 ± 0.26; as for ICRPGYGY, “inactive”; as for ICSCTGTYVVRNRMTGTL, -0.786 ± 0.49.
For the substance ICSSPLRIISINKLSGTYNL, the amyloid nucleation score came to 2.25 ± 0.14.
ICWPSLLYAPGTVKMSTERV returned an amyloid nucleation score of 0.706 ± 0.6.
Turning to IDCRELFVSLQVNRMLE, the amyloid nucleation score was determined as 0.234 ± 0.49.
With IDLFFAYSHRV, the amyloid nucleation score was 4.501 ± 0.044.
For IDNEMYFAHGIRGDSLL, the amyloid nucleation score entry is “inactive”.
Consider IDRCRNC, for which the amyloid nucleation score entry was “inactive”.
As to IENRLWIWSLH, the amyloid nucleation score amounted to 0.673 ± 0.32.
Regarding IERPVRVHRYKT, the amyloid nucleation score entry was “inactive”.
For IESSVCPGRRPGLLPTLKAG, the amyloid nucleation score amounted to 0.901 ± 0.31.
IFAVGTTTASKCVWKIVEQE registered an amyloid nucleation score of 2.09 ± 0.11.
For IFDIWTSIAVRDLLLNGRSW, the amyloid nucleation score was 0.561 ± 0.31.
Regarding IFFALNSTPPYYIYPEFKLQ, the amyloid nucleation score entry is “inactive”.
Take IFFVSDVESNIGRWLRRCFP: the amyloid nucleation score is 5.465 ± 0.054.
For the substance IFHLGLRR, the amyloid nucleation score came to 5.706 ± 0.053.
Substance IFISRVNDFTVMGGDWSFRG yielded an amyloid nucleation score of 3.64 ± 0.083.
The same measure for IFKINVVVSSNTAQ: 2.4 ± 0.21; for IFKQVTIYLYGGRSLLGSRR: -0.507 ± 0.54.
With IFPVLPGTLYRCTMMC, the amyloid nucleation score is -0.612 ± 0.32.
IFSLP: the amyloid nucleation score is -0.464 ± 0.5.
Substance IFWAYAICCIYGLRGCRGEY displayed an amyloid nucleation score of 6.64 ± 0.084.
On to IFYSSLALVWLYNLMDRECT, for which the amyloid nucleation score came out at 2.18 ± 0.17.
Regarding IGCSWSKQELVISNLLVFLF, the amyloid nucleation score was -1.52 ± 0.62.
With IGILSREGYWGGNRFLGYQL, the amyloid nucleation score was -1.32 ± 0.62.
For IGKGRFNVYCMN, the amyloid nucleation score was -0.64 ± 0.79.
Substance IGSRSMNYWLVVFD returned an amyloid nucleation score of 1.48 ± 0.11.
For IGSWVVEFGRFGYCFHGVID, the amyloid nucleation score was 3.19 ± 0.089.
The same measure for IGTMVEREKL: 0.299 ± 0.39.
IHDALTRCEWGSVSPRSSGC showed an amyloid nucleation score of 0.682 ± 0.28.
Substance IHKETGLEIVARRKVHFDGG showed an amyloid nucleation score of 0.524 ± 0.26.
As for IHLPKCISVSFRVSVGFLDM, the entry is “inactive”.
With IHNPLVRY, the amyloid nucleation score is -0.366 ± 0.41.
On to IICNLKISSMQDKGVMQAVF, for which the amyloid nucleation score is -0.871 ± 0.28.
Consider IICSNRQIRFKKGDFFIVFW, for which the amyloid nucleation score entry was “inactive”.
For IIFPGCKYLRYKDKEK, the amyloid nucleation score entry was “inactive”.
In the case of IIILYCGRYLINWTFLSCAY, the amyloid nucleation score entry was “inactive”.
Consider IIPLMLFSTLWGFKVHMKGY, for which the amyloid nucleation score is -0.207 ± 0.55.
Take IIPRMLDMPLSVWQEIIRFW: the amyloid nucleation score came out at 0.45 ± 0.5.
Consider IITIYLLAELNSVSVTSTSI, for which the amyloid nucleation score worked out at 5.138 ± 0.03.
As for IIVGATKMLCCFHVMMVYAP, the figure is 0.472 ± 0.8; as for IIYYMTVCQDSIDRIVPFCN, 2.01 ± 0.14.
As for IKAFWS, the entry is “inactive”.
IKLDIYNWAFSFNWFDK yielded an amyloid nucleation score of 6.05 ± 0.075.
For IKNLRNQGK, the amyloid nucleation score was -0.745 ± 0.61.
As for IKRSTNISEMWHYSFGVTVL, the amyloid nucleation score is -1.09 ± 0.63.
Turning to IKVDSAWETIAVVM, the amyloid nucleation score was found to be 0.246 ± 0.33.
The same measure for ILADINL: “inactive”.
As for ILAITRINA, the amyloid nucleation score was found to be 1.19 ± 0.13.
The same measure for ILDLWIVESKCFTSNMLHWV: -0.424 ± 0.76; for ILGSARYIVCGQVSEMRSAG: 0.367 ± 0.49; for ILHPADQNSCT: -1.26 ± 0.34.
Consider ILIKYVLAPWSSSLTVWGKA, for which the amyloid nucleation score was -0.365 ± 0.3.
Turning to ILKSRSLVRFHFFSIGASCA, the amyloid nucleation score came to 0.427 ± 0.41.
For the substance ILPISVLVDHINWSDPYFIM, the amyloid nucleation score stood at 0.035 ± 1.
ILPYGVWTRIASIKLK gave an amyloid nucleation score of 0.789 ± 0.17.
The same measure for ILQYN: -1.49 ± 0.62; for ILSARRCFAQMVFVLYQNLV: -0.171 ± 0.33; for ILSFTGASNFVCYMIVAKAG: 6.386 ± 0.033.
As for ILSLEDLSLVRYGAIDS, the figure is -0.483 ± 1.1.
As for ILSTVTDSSCNIACSCNNN, the figure is 8.363 ± 0.047.
On to ILVLW, for which the amyloid nucleation score was -0.022 ± 0.46.
ILWPLHVWYVICYRSNMWSY had an amyloid nucleation score of 5.27 ± 0.077.
The same measure for ILYMTDKLDQSSCLGLMSSH: -1.81 ± 0.78.
Substance IMASLRMKDANCLSCTCYNR returned an amyloid nucleation score of 6.798 ± 0.027.
For the substance IMCRRG, the amyloid nucleation score came out at 0.698 ± 0.52.
With IMMLEVDDLYGIEQSTFWK, the amyloid nucleation score is -0.33 ± 0.64.
For IMPNLAPGCRIRAIVND, the amyloid nucleation score is -0.006 ± 0.29.
In the case of IMWRTERINNYVDSV, the amyloid nucleation score was -0.846 ± 0.45.
With IMYPLRNLAQDFLGDSVSYL, the amyloid nucleation score was -1.07 ± 0.62.
